How the values were obtained:
Test in all cases: co-IP
[1] = biological target: Ste6*-GFP (S. cerevisiae) (UniProt P12866)
[2] = biological target: Pdr5*-Myc (S. cerevisiae) (UniProt P33302)
[3] = biological target: Hmg2-GFP (S. cerevisiae) (UniProt P12684)

Measured: fraction bound compared to wildtype Dfm1

UniProt P12866, sequence (P12866 whole entry): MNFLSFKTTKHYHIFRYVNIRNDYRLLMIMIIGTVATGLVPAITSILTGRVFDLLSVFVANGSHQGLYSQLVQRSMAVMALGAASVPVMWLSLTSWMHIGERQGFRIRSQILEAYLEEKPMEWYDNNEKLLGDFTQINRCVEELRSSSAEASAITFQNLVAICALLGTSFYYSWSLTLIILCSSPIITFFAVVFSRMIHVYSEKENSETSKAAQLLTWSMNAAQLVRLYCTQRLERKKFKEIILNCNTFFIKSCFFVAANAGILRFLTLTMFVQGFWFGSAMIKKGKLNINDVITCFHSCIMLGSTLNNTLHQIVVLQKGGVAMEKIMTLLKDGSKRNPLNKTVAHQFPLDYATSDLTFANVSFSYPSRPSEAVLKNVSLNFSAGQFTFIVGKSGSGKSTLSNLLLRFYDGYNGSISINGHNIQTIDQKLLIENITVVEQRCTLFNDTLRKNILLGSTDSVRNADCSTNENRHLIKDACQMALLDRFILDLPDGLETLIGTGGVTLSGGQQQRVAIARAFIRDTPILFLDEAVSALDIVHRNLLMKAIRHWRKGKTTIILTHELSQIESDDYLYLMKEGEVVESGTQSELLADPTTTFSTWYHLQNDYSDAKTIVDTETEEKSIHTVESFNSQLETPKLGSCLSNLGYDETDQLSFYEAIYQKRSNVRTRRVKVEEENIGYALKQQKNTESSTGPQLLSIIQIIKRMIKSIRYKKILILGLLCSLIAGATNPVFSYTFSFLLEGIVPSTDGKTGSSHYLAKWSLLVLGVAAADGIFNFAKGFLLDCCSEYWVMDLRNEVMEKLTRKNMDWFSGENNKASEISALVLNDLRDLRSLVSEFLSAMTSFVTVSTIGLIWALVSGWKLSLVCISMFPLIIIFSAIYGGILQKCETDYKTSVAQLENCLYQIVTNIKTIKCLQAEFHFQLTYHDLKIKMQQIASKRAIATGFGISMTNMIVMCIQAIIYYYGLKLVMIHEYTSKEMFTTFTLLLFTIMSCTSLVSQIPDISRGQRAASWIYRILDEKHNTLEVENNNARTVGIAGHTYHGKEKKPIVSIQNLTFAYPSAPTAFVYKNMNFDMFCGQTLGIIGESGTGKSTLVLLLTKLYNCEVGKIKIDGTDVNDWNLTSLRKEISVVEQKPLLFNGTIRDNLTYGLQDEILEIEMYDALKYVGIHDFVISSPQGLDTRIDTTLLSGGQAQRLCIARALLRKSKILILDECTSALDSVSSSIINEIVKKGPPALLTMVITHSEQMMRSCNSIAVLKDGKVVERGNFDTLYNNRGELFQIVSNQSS
UniProt P33302, sequence (P33302 whole entry): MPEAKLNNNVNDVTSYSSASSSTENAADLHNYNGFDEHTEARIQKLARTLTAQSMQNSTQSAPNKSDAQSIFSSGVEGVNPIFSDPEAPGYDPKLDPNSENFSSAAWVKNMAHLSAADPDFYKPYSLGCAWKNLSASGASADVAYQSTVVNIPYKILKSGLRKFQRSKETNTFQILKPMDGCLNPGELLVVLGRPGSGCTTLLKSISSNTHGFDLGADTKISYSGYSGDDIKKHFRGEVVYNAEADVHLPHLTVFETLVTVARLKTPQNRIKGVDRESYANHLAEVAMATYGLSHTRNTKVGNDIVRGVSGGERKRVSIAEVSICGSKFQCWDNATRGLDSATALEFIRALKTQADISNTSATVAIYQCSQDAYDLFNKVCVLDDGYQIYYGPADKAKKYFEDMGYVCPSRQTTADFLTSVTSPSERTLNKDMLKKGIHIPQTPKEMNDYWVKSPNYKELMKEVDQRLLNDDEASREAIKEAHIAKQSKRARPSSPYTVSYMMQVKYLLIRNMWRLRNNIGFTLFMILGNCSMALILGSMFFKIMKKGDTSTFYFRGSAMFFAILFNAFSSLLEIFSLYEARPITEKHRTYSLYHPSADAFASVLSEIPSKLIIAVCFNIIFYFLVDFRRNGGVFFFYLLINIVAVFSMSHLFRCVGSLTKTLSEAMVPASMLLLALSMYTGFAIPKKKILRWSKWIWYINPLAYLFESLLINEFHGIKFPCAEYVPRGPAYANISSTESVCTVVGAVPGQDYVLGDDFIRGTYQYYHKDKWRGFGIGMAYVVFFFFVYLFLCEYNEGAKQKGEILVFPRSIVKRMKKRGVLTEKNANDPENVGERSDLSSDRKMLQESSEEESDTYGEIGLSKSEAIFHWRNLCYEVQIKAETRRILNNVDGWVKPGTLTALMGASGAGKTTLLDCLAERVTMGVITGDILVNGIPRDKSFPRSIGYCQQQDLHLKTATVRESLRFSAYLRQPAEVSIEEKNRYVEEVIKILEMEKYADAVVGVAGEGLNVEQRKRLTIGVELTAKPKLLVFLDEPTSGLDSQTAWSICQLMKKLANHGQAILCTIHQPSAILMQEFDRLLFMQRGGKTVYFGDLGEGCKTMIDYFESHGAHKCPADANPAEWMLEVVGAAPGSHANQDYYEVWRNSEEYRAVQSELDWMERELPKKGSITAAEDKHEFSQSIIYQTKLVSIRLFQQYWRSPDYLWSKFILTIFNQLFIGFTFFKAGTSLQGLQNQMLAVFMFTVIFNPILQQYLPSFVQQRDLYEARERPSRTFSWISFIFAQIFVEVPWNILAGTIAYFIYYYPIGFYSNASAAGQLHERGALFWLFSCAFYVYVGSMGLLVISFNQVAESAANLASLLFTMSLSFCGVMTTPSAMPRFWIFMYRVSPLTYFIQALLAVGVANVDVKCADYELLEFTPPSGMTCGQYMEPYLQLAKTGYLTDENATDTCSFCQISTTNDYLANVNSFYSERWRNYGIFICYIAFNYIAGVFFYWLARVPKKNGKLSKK
UniProt P12684, sequence (P12684 whole entry): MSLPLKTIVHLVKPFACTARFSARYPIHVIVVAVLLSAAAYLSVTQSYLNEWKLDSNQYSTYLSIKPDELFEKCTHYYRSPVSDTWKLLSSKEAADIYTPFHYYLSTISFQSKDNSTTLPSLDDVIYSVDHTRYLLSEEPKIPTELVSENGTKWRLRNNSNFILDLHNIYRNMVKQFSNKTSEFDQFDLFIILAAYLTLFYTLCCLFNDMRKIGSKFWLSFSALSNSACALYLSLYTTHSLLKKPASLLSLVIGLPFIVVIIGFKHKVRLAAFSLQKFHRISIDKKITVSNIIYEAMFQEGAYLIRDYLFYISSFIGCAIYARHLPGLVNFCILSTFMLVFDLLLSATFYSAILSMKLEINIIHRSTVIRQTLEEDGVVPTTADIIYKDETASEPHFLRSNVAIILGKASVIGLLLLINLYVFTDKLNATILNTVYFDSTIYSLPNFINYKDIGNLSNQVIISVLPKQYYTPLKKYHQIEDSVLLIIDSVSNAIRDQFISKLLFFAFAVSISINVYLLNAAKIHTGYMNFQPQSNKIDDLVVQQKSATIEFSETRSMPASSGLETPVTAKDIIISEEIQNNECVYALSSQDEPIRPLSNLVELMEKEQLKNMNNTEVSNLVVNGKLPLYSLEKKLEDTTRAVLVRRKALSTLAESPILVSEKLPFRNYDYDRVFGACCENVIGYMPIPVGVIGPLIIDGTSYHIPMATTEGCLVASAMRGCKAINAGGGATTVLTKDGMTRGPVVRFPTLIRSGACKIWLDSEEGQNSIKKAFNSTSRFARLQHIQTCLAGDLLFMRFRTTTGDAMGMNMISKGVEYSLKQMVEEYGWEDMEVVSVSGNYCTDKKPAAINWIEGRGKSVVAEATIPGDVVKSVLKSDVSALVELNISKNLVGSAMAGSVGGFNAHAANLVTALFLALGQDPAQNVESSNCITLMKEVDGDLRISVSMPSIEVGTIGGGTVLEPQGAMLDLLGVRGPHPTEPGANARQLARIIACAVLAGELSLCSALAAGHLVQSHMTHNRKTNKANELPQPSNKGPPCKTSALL

Dfm1-5Ashp (from UniProt Q12743 1-341) (natural protein)
< 5%: all assays above
